{"source": "patent US20150266922", "target": "SUMO1 (UniProt P63165)", "sequence (P63165 1-97)": "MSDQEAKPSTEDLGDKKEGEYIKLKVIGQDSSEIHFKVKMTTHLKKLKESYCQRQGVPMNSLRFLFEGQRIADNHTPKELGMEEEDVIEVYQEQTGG", "data": [{"substance": "recombinant DPP9V285A (insect cells)", "values": [{"measurement": "hydrolysis of GP-AMC by DPP9 V285A", "result": "the SUBA mutant DPP9V285A was not activated by SUMO1"}]}]}
